Assay [1] concerns the target human Bax BH3 motif peptide (28-mer) (human). Put plainly: ITC.
The target in assay [2] is human Bak BH3 motif peptide (26-mer) (human). Put plainly: ITC.
In assay [3] the target is TANV16L (tanapoxvirus 16L) lacking the C-terminal 23 residues, wild type (tanapoxvirus). Put plainly: AUC.

Values joined by “and” are separate entries in the source; they are usually repeats but may differ in a detail not shown here. Equal entries are not always repeated.

Take “TANV16L (tanapoxvirus 16L) lacking the C-terminal 23 residues, wild type (domain or fragment)”: the Kd was 70 nM in assay [1] and 38 nM in assay [2]. For the same substance, in assay [3], the ratio of monomer:dimer is 3.5 :1. The stoichiometry N in assay [3] was 2 and 4.
